Source: US20020127673A1 (REGENTS OF THE UNIVERSITY OF MICHIGAN, published 2002)

B1: caspase-1 (enzyme, UniProt P29466 1-404, looked up)
chain: MADKVLKEKRKLFIRSMGEGTINGLLDELLQTRVLNKEEMEKVKRENATVMDKTRALIDSVIPKGAQACQICITYICEEDSYLAGTLGLSADQTSGNYLNMQDSQGVLSSFPAPQAVQDNPAMPTSSGSEGNVKLCSLEEAQRIWKQKSAEIYPIMDKSSRTRLALIICNEEFDSIPRRTGAEVDITGMTMLLQNLGYSVDVKKNLTASDMTTELEAFAHRPEHKTSDSTFLVFMSHGIREGICGKKHSEQVPDILQLNAIFNMLNTKNCPSLKDKPKVIIIQACRGDSPGVVWFKDSVGVSGNLSLPTTEEFEDDAIKKAHIEKDFIAFCSSTPDNVSWRHPTMGSVFIGRLIEHMQEYACSCDVEEIFRKVRFSFEQPDGRAQMPTTERVTLTRCFYLFPGH
notes: Construct and tag not described
B2: TRAF-1 (other, UniProt Q13077 1-416, looked up)
chain: MASSSGSSPRPAPDENEFPFGCPPTVCQDPKEPRALCCAGCLSENPRNGEDQICPKCRGEDLQSISPGSRLRTQEKAHPEVAEAGIGCPFAGVGCSFKGSPQSVQEHEVTSQTSHLNLLLGFMKQWKARLGCGLESGPMALEQNLSDLQLQAAVEVAGDLEVDCYRAPCSESQEELALQHFMKEKLLAELEGKLRVFENIVAVLNKEVEASHLALATSIHQSQLDRERILSLEQRVVELQQTLAQKDQALGKLEQSLRLMEEASFDGTFLWKITNVTRRCHESACGRTVSLFSPAFYTAKYGYKLCLRLYLNGDGTGKRTHLSLFIVIMRGEYDALLPWPFRNKVTFMLLDQNNREHAIDAFRPDLSSASFQRPQSETNVASGCPLFFPLSKLQSPKHAYVKDDTMFLKCIVETST
notes: as for B1
B3: NIK (enzyme, UniProt Q99558 1-947, looked up)
chain: MAVMEMACPGAPGSAVGQQKELPKAKEKTPPLGKKQSSVYKLEAVEKSPVFCGKWEILNDVITKGTAKEGSEAGPAAISIIAQAECENSQEFSPTFSERIFIAGSKQYSQSESLDQIPNNVAHATEGKMARVCWKGKRRSKARKKRKKKSSKSLAHAGVALAKPLPRTPEQESCTIPVQEDESPLGAPYVRNTPQFTKPLKEPGLGQLCFKQLGEGLRPALPRSELHKLISPLQCLNHVWKLHHPQDGGPLPLPTHPFPYSRLPHPFPFHPLQPWKPHPLESFLGKLACVDSQKPLPDPHLSKLACVDSPKPLPGPHLEPSCLSRGAHEKFSVEEYLVHALQGSVSSGQAHSLTSLAKTWAARGSRSREPSPKTEDNEGVLLTEKLKPVDYEYREEVHWATHQLRLGRGSFGEVHRMEDKQTGFQCAVKKVRLEVFRAEELMACAGLTSPRIVPLYGAVREGPWVNIFMELLEGGSLGQLVKEQGCLPEDRALYYLGQALEGLEYLHSRRILHGDVKADNVLLSSDGSHAALCDFGHAVCLQPDGLGKSLLTGDYIPGTETHMAPEVVLGRSCDAKVDVWSSCCMMLHMLNGCHPWTQFFRGPLCLKIASEPPPVREIPPSCAPLTAQAIQEGLRKEPIHRVSAAELGGKVNRALQQVGGLKSPWRGEYKEPRHPPPNQANYHQTLHAQPRELSPRAPGPRPAEETTGRAPKLQPPLPPEPPEPNKSPPLTLSKEESGMWEPLPLSSLEPAPARNPSSPERKATVPEQELQQLEIELFLNSLSQPFSLEEQEQILSCLSIDSLSLSDDSEKNPSKASQSSRDTLSSGVHSWSSQAEARSSSWNMVLARGRPTDTPSYFNGVKVQIQSLNGEHLHIREFHRVKVGDIATGISSQIPAAAFSLVTKDGQPVRYDMEVPDSGIDLQCTLAPDGSFAWSWRVKHGQLENRP
notes: as for B1
B4: RIP (enzyme, UniProt Q13546 1-671, looked up)
chain: MQPDMSLNVIKMKSSDFLESAELDSGGFGKVSLCFHRTQGLMIMKTVYKGPNCIEHNEALLEEAKMMNRLRHSRVVKLLGVIIEEGKYSLVMEYMEKGNLMHVLKAEMSTPLSVKGRIILEIIEGMCYLHGKGVIHKDLKPENILVDNDFHIKIADLGLASFKMWSKLNNEEHNELREVDGTAKKNGGTLYYMAPEHLNDVNAKPTEKSDVYSFAVVLWAIFANKEPYENAICEQQLIMCIKSGNRPDVDDITEYCPREIISLMKLCWEANPEARPTFPGIEEKFRPFYLSQLEESVEEDVKSLKKEYSNENAVVKRMQSLQLDCVAVPSSRSNSATEQPGSLHSSQGLGMGPVEESWFAPSLEHPQEENEPSLQSKLQDEANYHLYGSRMDRQTKQQPRQNVAYNREEERRRRVSHDPFAQQRPYENFQNTEGKGTAYSSAASHGNAVHQPSGLTSQPQVLYQNNGLYSSHGFGTRPLDPGTAGPRVWYRPIPSHMPSLHNIPVPETNYLGNTPTMPFSSLPPTDESIKYTIYNSTGIQIGAYNYMEIGGTSSSLLDSTNTNFKEEPAAKYQAIFDNTTSLTDKHLDPIRENLGKHWKNCARKLGFTQSQIDEIDHDYERDGLKEKVYQMLQKWVMREGIKGATVGKLAQALHQCSRIDLLSSLIYVSQN
notes: Construct and tag not described for this test
B5: TRAF-6 (other, UniProt Q9Y4K3 1-522, looked up)
chain: MSLLNCENSCGSSQSESDCCVAMASSCSAVTKDDSVGGTASTGNLSSSFMEEIQGYDVEFDPPLESKYECPICLMALREAVQTPCGHRFCKACIIKSIRDAGHKCPVDNEILLENQLFPDNFAKREILSLMVKCPNEGCLHKMELRHLEDHQAHCEFALMDCPQCQRPFQKFHINIHILKDCPRRQVSCDNCAASMAFEDKEIHDQNCPLANVICEYCNTILIREQMPNHYDLDCPTAPIPCTFSTFGCHEKMQRNHLARHLQENTQSHMRMLAQAVHSLSVIPDSGYISEVRNFQETIHQLEGRLVRQDHQIRELTAKMETQSMYVSELKRTIRTLEDKVAEIEAQQCNGIYIWKIGNFGMHLKCQEEEKPVVIHSPGFYTGKPGYKLCMRLHLQLPTAQRCANYISLFVHTMQGEYDSHLPWPFQGTIRLTILDQSEAPVRQNHEEIMDAKPELLAFQRPTIPRNPKGFGYVTFMHLEALRQRTFIKDDTLLVRCEVSTRFDMGSLRREGFQPRSTDAGV
notes: as for B1
B6: Ced-4 (other, UniProt P30429 1-549, looked up)
chain: MLCEIECRALSTAHTRLIHDFEPRDALTYLEGKNIFTEDHSELISKMSTRLERIANFLRIYRRQASELGPLIDFFNYNNQSHLADFLEDYIDFAINEPDLLRPVVIAPQFSRQMLDRKLLLGNVPKQMTCYIREYHVDRVIKKLDEMCDLDSFFLFLHGRAGSGKSVIASQALSKSDQLIGINYDSIVWLKDSGTAPKSTFDLFTDILLMLKSEDDLLNFPSVEHVTSVVLKRMICNALIDRPNTLFVFDDVVQEETIRWAQELRLRCLVTTRDVEISNAASQTCEFIEVTSLEIDECYDFLEAYGMPMPVGEKEEDVLNKTIELSSGNPATLMMFFKSCEPKTFEKMAQLNNKLESRGLVGVECITPYSYKSLAMALQRCVEVLSDEDRSALAFAVVMPPGVDIPVKLWSCVIPVDICSNEEEQLDDEVADRLKRLSKRGALLSGKRMPVLTFKIDHIIHMFLKHVVDAQTIANGISILEQRLLEIGNNNVSVPERHIPSHFQKFRRSSASEMYPKTTEETVIRPEDFPKFMQLHQKFYDSLKNFACC
notes: as for B1
B7: TRADD (other, UniProt Q15628 1-312, looked up)
chain: MAAGQNGHEEWVGSAYLFVESSLDKVVLSDAYAHPQQKVAVYRALQAALAESGGSPDVLQMLKIHRSDPQLIVQLRFCGRQPCGRFLRAYREGALRAALQRSLAAALAQHSVPLQLELRAGAERLDALLADEERCLSCILAQQPDRLRDEELAELEDALRNLKCGSGARGGDGEVASAPLQPPVPSLSEVKPPPPPPPAQTFLFQGQPVVNRPLSLKDQQTFARSVGLKWRKVGRSLQRGCRALRDPALDSLAYEYEREGLYEQAFQLLRRFVQAEGRRATLQRLVEALEENELTSLAEDLLGLTDPNGGLA
notes: as for B1
B8: IKKα (enzyme, UniProt O15111 1-745, looked up)
chain: MERPPGLRPGAGGPWEMRERLGTGGFGNVCLYQHRELDLKIAIKSCRLELSTKNRERWCHEIQIMKKLNHANVVKACDVPEELNILIHDVPLLAMEYCSGGDLRKLLNKPENCCGLKESQILSLLSDIGSGIRYLHENKIIHRDLKPENIVLQDVGGKIIHKIIDLGYAKDVDQGSLCTSFVGTLQYLAPELFENKPYTATVDYWSFGTMVFECIAGYRPFLHHLQPFTWHEKIKKKDPKCIFACEEMSGEVRFSSHLPQPNSLCSLVVEPMENWLQLMLNWDPQQRGGPVDLTLKQPRCFVLMDHILNLKIVHILNMTSAKIISFLLPPDESLHSLQSRIERETGINTGSQELLSETGISLDPRKPASQCVLDGVRGCDSYMVYLFDKSKTVYEGPFASRSLSDCVNYIVQDSKIQLPIIQLRKVWAEAVHYVSGLKEDYSRLFQGQRAAMLSLLRYNANLTKMKNTLISASQQLKAKLEFFHKSIQLDLERYSEQMTYGISSEKMLKAWKEMEEKAIHYAEVGVIGYLEDQIMSLHAEIMELQKSPYGRRQGDLMESLEQRAIDLYKQLKHRPSDHSYSDSTEMVKIIVHTVQSQDRVLKELFGHLSKLLGCKQKIIDLLPKVEVALSNIKEADNTVMFMQGKRQKEIWHLLKIACTQSSARSLVGSSLEGAVTPQTSAWLPPTSAEHDHSLSCVVTPQDGETSAQMIEENLNCLGHLSTIIHEANEEQGNSMMNLDWSWLTE
notes: as for B4
B9: TRAF-2 (other, UniProt Q12933 1-501, looked up)
chain: MAAASVTPPGSLELLQPGFSKTLLGTKLEAKYLCSACRNVLRRPFQAQCGHRYCSFCLASILSSGPQNCAACVHEGIYEEGISILESSSAFPDNAARREVESLPAVCPSDGCTWKGTLKEYESCHEGRCPLMLTECPACKGLVRLGEKERHLEHECPERSLSCRHCRAPCCGADVKAHHEVCPKFPLTCDGCGKKKIPREKFQDHVKTCGKCRVPCRFHAIGCLETVEGEKQQEHEVQWLREHLAMLLSSVLEAKPLLGDQSHAGSELLQRCESLEKKTATFENIVCVLNREVERVAMTAEACSRQHRLDQDKIEALSSKVQQLERSIGLKDLAMADLEQKVLEMEASTYDGVFIWKISDFARKRQEAVAGRIPAIFSPAFYTSRYGYKMCLRIYLNGDGTGRGTHLSLFFVVMKGPNDALLRWPFNQKVTLMLLDQNNREHVIDAFRPDVTSSSFQRPVNDMNIASGCPLFCPVSKMEAKNSYVRDDAIFIKAIVDLTGL
notes: as for B1
B10: IKKβ (enzyme, UniProt O14920 1-756, looked up)
chain: MSWSPSLTTQTCGAWEMKERLGTGGFGNVIRWHNQETGEQIAIKQCRQELSPRNRERWCLEIQIMRRLTHPNVVAARDVPEGMQNLAPNDLPLLAMEYCQGGDLRKYLNQFENCCGLREGAILTLLSDIASALRYLHENRIIHRDLKPENIVLQQGEQRLIHKIIDLGYAKELDQGSLCTSFVGTLQYLAPELLEQQKYTVTVDYWSFGTLAFECITGFRPFLPNWQPVQWHSKVRQKSEVDIVVSEDLNGTVKFSSSLPYPNNLNSVLAERLEKWLQLMLMWHPRQRGTDPTYGPNGCFKALDDILNLKLVHILNMVTGTIHTYPVTEDESLQSLKARIQQDTGIPEEDQELLQEAGLALIPDKPATQCISDGKLNEGHTLDMDLVFLFDNSKITYETQISPRPQPESVSCILQEPKRNLAFFQLRKVWGQVWHSIQTLKEDCNRLQQGQRAAMMNLLRNNSCLSKMKNSMASMSQQLKAKLDFFKTSIQIDLEKYSEQTEFGITSDKLLLAWREMEQAVELCGRENEVKLLVERMMALQTDIVDLQRSPMGRKQGGTLDDLEEQARELYRRLREKPRDQRTEGDSQEMVRLLLQAIQSFEKKVRVIYTQLSKTVVCKQKALELLPKVEEVVSLMNEDEKTVVRLQEKRQKELWNLLKIACSKVRGPVSGSPDSMNASRLSQPGQLMSQPSTASNSLPEPAKKSEELVAEAHNLCTLLENAIQDTVREQDQSFTALDWSWLQTEEEEHSCLEQAS
notes: as for B4

target: T1, HA-tagged wild-type Nod2 (human, UniProt Q9HC29 1-1040); assay: co-immunoprecipitation from co-transfected HEK293T cells
T1 construct: Expressed by transfection in HEK293T cells and tested in cell lysates; also called wt Nod2; pcDNA3-Nod2-HA; not shown: HA tag
Text: The CARD motif functions as an effector domain that mediates specific homophilic interaction with downstream CARD-containing molecules (Hofmann et al., Trends Biochem. Sci. 22: 155-156 [1997]).

T1 sequence (Q9HC29 whole entry R703H): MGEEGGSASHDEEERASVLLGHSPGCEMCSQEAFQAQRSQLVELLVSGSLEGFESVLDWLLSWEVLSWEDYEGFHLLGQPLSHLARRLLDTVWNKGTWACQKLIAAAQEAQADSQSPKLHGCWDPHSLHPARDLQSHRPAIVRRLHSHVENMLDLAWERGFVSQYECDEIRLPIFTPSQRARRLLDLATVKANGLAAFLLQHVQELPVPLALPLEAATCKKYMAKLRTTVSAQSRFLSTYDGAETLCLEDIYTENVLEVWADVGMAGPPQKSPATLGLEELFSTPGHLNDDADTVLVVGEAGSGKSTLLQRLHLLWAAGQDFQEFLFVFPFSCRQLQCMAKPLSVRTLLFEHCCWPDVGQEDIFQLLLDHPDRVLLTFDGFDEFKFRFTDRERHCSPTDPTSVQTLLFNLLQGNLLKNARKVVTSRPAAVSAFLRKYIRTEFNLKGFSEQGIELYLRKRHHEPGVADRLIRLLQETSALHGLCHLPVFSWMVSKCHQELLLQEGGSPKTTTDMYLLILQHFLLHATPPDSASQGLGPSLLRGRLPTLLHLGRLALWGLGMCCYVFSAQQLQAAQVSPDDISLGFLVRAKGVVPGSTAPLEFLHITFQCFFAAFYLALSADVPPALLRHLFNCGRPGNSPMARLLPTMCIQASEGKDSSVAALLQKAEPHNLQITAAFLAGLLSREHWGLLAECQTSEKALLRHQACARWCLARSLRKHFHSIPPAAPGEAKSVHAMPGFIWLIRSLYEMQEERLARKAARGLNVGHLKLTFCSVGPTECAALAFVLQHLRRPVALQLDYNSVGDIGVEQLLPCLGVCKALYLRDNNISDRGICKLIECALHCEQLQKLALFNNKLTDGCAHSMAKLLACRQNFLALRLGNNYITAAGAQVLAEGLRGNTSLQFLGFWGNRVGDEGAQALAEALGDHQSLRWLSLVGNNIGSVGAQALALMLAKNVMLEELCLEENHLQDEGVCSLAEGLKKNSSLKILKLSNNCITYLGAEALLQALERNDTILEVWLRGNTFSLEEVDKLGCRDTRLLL

binding result	Binder
no binding	B1
no binding	B2
no binding	B3
no binding	B4
no binding	B5
no binding	B6
no binding	B7
no binding	B8
no binding	B9
no binding	B10
